Experimental findings from patent publication US9248180B2, “IC31 nanoparticles” (Valneva Austria GmbH, priority 2010, dated 2016) are described below.

Series [1] has as its system CD8+ cells from the lungs. Briefly: Cytometric Bead Array of cytokines produced by CD8+ lung cells of vaccinated mice. In kind it is in vivo, C57BL/6 mice. The conditions noted are these: immunizations d0, d13, d28.
Series [2] is described as follows: Viscosity and sterile-filterability of KLK in 10 mM Tris as a function of pH. In kind it is physicochemical. Conditions: for Viscosity (cP): 2000 nmol/mL KLK in 10 mM Tris, no salt; for Sterile-filterable: 0.2 μm filter. Here is the method: For sterile filtration, appropriate viscosity of the mixture to be filtered is also critical. Viscosity can be measured e.g. on a Brookfield DV-E rotation viscometer at 20° C. using an LV61 spindle and can be reported as centipoise (cP=milliPascal seconds). Preferred compositions have a viscosity of less than 15 cP. Even more preferred compositions have viscosities of less than 12 cP or even less than 10 cP.
One of the key factors for sterile-filterable compositions is viscosity. At a viscosity >15 cP, sterile filtration through a 0.2 μm filter is no longer possible. The final viscosity of the nanoparticulate IC31® composition correlates to the final pH of the composition due to the fact that the viscosity of KLK in solution increases drastically with increasing pH, resulting in non-sterile-filterable formulations at a final pH of around 7.2.

[3] abbreviates: CD8+ lung cells stimulated with Medium.
Where [4] appears, read: CD8+ lung cells stimulated with SVN19-28.
Setting [5] is: CD8+ lung cells stimulated with TRP-2180-188.

Values joined by “and” are separate entries in the source; they are usually repeats but may differ in a detail not shown here. Equal entries are not always repeated.

In series [1] (setting [3]), SVYDFFVWL [TRP-2180-188] displayed a GM-CSF of 46 pg/mL, an IFN-γ of 41 pg/mL, an IL-6 of 109 pg/mL and a TNF-α of 14 pg/mL. In series [1] (setting [4]), the GM-CSF was determined as 57 pg/mL, the IFN-γ was determined as 199 pg/mL, the IL-2 is 43 pg/mL and the IL-6 is reported as 115 pg/mL. The same sequence displayed a TNF-α in series [1] (CD8+ lung cells stimulated with SVN19-28de) of 9 pg/mL. In series [1] (setting [5]), this sequence showed a GM-CSF of 48 pg/mL, an IFN-γ of 301 pg/mL, an IL-2 of 33 pg/mL and an IL-6 of 185 pg/mL. Moreover, in series [1] (setting [5]), the IL-10 stood at 56 pg/mL and the TNF-α is reported as 24 pg/mL.
In the case of “KLKLLLLLKLK [peptide component of IC31®]”, the “Viscosity (cP)” value in series [2] (pH 6.24) is 9.69 cP; in series [2] (pH 6.4), 8.06 cP; in series [2] (pH 6.6) it was 10.00 cP; in series [2] (pH 6.73), 10.00 cP; in series [2] (pH 6.88) it was 10.94 cP; in series [2] (pH 7.03) it was 11.25 cP. For the same sequence, the “Viscosity (cP)” value in series [2] (pH 7.22) was 15.00 cP; in series [2] (pH 7.39) it was 16.88 cP; in series [2] (pH 7.7) it was 16.88 cP; in series [2] (pH 7.96) it was 25.00 cP; in series [2] (pH 8.4), 21.88 cP and 24.38 cP; in series [2] (pH 8.8), 87.50 cP. Also, the Sterile-filterable entry in series [2] (pH 6.24), in series [2] (pH 6.4), in series [2] (pH 6.6), in series [2] (pH 6.73), in series [2] (pH 6.88) and in series [2] (pH 7.03) was “Yes” in each case. For the same sequence, the Sterile-filterable result is “Yes/No*” in series [2] (pH 7.22); “No” in series [2] (pH 7.39); “No” in series [2] (pH 7.7); “No” in series [2] (pH 7.96); “No” in series [2] (pH 8.4); “No” in series [2] (pH 8.8).
